The text below walks through data of PMC7363131.

The assay has as its target S. venezuelae WhiD (SvWhiD), N-terminally His6-tagged, full length (S. venezuelae). The assay can be described thus: native MS; nondenaturing ESI-MS, 250 mM ammonium acetate, pH 7.2; SvWhiD alone (10 μM) or a 2:1 mixture of σ^HrdB4 and SvWhiD.

For “S. venezuelae WhiD (SvWhiD), N-terminally His6-tagged, full length (natural protein)”, the stoichiometry N stood at 2.

As usually defined, the stoichiometry N is a count of units in the complex or per binding partner.
